Sequences and labels used below:
B1: DACT1 (dishevelled binding antagonist of beta catenin 1), wildtype, Myc-tagged [human] / DVL2 (dishevelled segment polarity protein 2), Flag(3x)-tagged [not stated] (parent complex)
chain 1: MKPSPAGTAKELEPPAPARGEQRTAEPEGRWREKGEADTERQRTRERQEATLAGLAELEYLRQRQELLVRGALRGAGGAGAAAPRAGELLGEAAQRSRLEEKFLEENILLLRKQLNCLRRRDAGLLNQLQELDKQISDLRLDVEKTSEEHLETDSRPSSGFYELSDGASGSLSNSSNSVFSECLSSCHSSTCFCSPLEATLSLSDGCPKSADLIGLLEYKEGHCEDQASGAVCRSLSTPQFNSLDVIADVNPKYQCDLVSKNGNDVYRYPSPLHAVAVQSPMFLLCLTGNPLREEDRLGNHASDICGGSELDAVKTDSSLPSPSSLWSASHPSSSKKMDGYILSLVQKKTHPVRTNKPRTSVNADPTKGLLRNGSVCVRAPGGVSQGNSVNLKNSKQACLPSGGIPSLNNGTFSPPKQWSKESKAEQAESKRVPLPEGCPSGAASDLQSKHLPKTAKPASQEHARCSAIGTGESPKESAQLSGASPKESPSRGPAPPQENKVVQPLKKMSQKNSLQGVPPATPPLLSTAFPVEERPALDFKSEGSSQSLEEAHLVKAQFIPGQQPSVRLHRGHRNMGVVKNSSLKHRGPALQGLENGLPTVREKTRAGSKKCRFPDDLDTNKKLKKASSKGRKSGGGPEAGVPGRPAGGGHRAGSRAHGHGREAVVAKPKHKRTDYRRWKSSAEISYEEALRRARRGRRENVGLYPAPVPLPYASPYAYVASDSEYSAECESLFHSTVVDTSEDEQSNYTTNCFGDSESSVSEGEFVGESTTTSDSEESGGLIWSQFVQTLPIQTVTAPDLHNHPAKTFVKIKASHNLKKKILRFRSGSLKLMTTV
chain 2: MAGSSTGGGGVGETKVIYHLDEEETPYLVKIPVPAERITLGDFKSVLQRPAGAKYFFKSMDQDFGVVKEEISDDNARLPCFNGRVVSWLVSSDNPQPEMAPPVHEPRAELAPPAPPLPPLPPERTSGIGDSRPPSFHPNVSSSHENLEPETETESVVSLRRERPRRRDSSEHGAGGHRTGGPSRLERHLAGYESSSTLMTSELESTSLGDSDEEDTMSRFSSSTEQSSASRLLKRHRRRRKQRPPRLERTSSFSSVTDSTMSLNIITVTLNMEKYNFLGISIVGQSNERGDGGIYIGSIMKGGAVAADGRIEPGDMLLQVNDMNFENMSNDDAVRVLRDIVHKPGPIVLTVAKCWDPSPQAYFTLPRNEPIQPIDPAAWVSHSAALTGTFPAYPGSSSMSTITSGSSLPDGCEGRGLSVHTDMASVTKAMAAPESGLEVRDRMWLKITIPNAFLGSDVVDWLYHHVEGFPERREARKYASGLLKAGLIRHTVNKITFSEQCYYVFGDLSGGCESYLVNLSLNDNDGSSGASDQDTLAPLPGATPWPLLPTFSYQYPAPHPYSPQPPPYHELSSYTYGGGSASSQHSEGSRSSGSTRSDGGAGRTGRPEERAPESKSGSGSESEPSSRGGSLRRGGEASGTSDGGPPPSRGSTGGAPNLRAHPGLHPYGPPPGMALPYNPMMVVMMPPPPPPVPPAVQPPGAPPVRDLGSVPPELTASRQSFHMAMGNPSEFFVDVM

Response data for seven variants are collected here from PMC9839807 (2022).

The test covers variants of B1. The experiment in a line: co-immunoprecipitation (IP: anti-Myc), band ratio quantified; parent: 1; read off a plot.
Consider chain 1 G644D, for which the response was approximately 0.72.
With chain 1 P669A, the response was approximately 0.69.
To chain 1 L823R belongs approximately 0.6.
To chain 1 R568K belongs approximately 0.69.
Take chain 1 T367K: the response was approximately 0.72.
Consider chain 1 L591F, for which the response was approximately 0.7.
To chain 1 K630N belongs approximately 0.68.
